Measured values from patent US20210085770A1 (KORANEX CAPITAL, published 2021).

B1: Maackia amurensis lectin (MAA) (other)
chain: SDELSFTINNFVPNEADLLFQGEASVSSTGVLQLTRVENGQPQKYSVGRALYAAPVRIWDNTTGSVASFSTSFTFVVKAPNPDITSDGLAFYLAPPDSQIPSGSVSKYLGLFNNSNSDSSNQIVAVELDTYFAHSYDPWDPNYRHIGIDVNGIESIKTVQWDWINGGVAFATITYLAPNKTLIASLVYPSNQTTFSVAASVDLKEILPEWVRVGFSAATGYPTEVETHDVLSWSFTSTLEANCDAATEN
B2: Vicia villosa lectin (VVA) (other)
chain: SESTSFSFTNFNPNQENLILQEDALVNSKGTLELTKNGKPVPESLGRNCTTLASFTTSFSFVMSAPNSLDVADGLAFFLAPPDTQPQKRGGFLGLFKDRKHDISYQSVAVEFDTYSNVWDPNTTHIGIDTNTIESKKITPFDMVYGEKILFASLVFPVSQDILPEYVRVGFSATTGLNEGVVETH

Target: T1, recombinant SARS-CoV-2 S1 protein expressed from insect (Sf9) cells (S1-His, SinoBiological, Cat. No. … (SARS-CoV-2, UniProt P0DTC2 16-685, glycosylated by insect cells))
T1 construct: also called 51-His (as misprinted)
Assay: ELISA, coated insect-cell S1-His, HRP-conjugated lectin 10 ug/mL

| Binder | mean fold increase of OD450 [fold] |
| --- | --- |
| B1 | 4.3 |
| B2 | 22.5 |
